Source: the nanobody polyreactivity screen of Harvey et al. (2022)

Assay: yeast display, Sf9 membrane polyspecificity reagent, FACS + sequencing; frameworks hold sequencing errors
Outline: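 Polyreactivity labels are assigned by the sorting gate from which each nanobody was recovered. The gates were low and high (top ~1%), set on anti-HA fluorescence for expression and streptavidin fluorescence for reagent binding. Before sorting, galactose-induced (36–48 hours) yeast display cells were stained for 1 hour at 4 °C with 10% biotinylated, detergent-solubilized Sf9 membrane reagent.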

Sequence | polyreactivity (PSR sort gate)
QVQLVESGGGLVQAGGSLRLSCAASGIIFAGNAMGWYRQAPGKEREFVAAISYRGGTTYYADSVKGRFTISRDNAKNTVYLQMNSLKPEDTAVYYCAADPRSKGFYYGYDYWGQGTQGTVSS | high polyreactivity
QVQLVESGGGLVQAGGSLRLSCAASGRTFTTNAMGWYRQAPGKERELVAAITSTTRTYYADSVKGRFTISRDNAKNTVYLQMNSLKPEDTAVYFCAARYPTPWGYYYWGQGTQVTVSS | high polyreactivity
QVQLVESGGGLVQAGGSLRLSCAASGSTFKYNAMGWYRQAPGKEREFVAAISYSGGSTYYADSVKGRFTISRDYAKNTVYLQMNSLKPEDTAVYYCAAYPWERYTWRYVYRGHDYWGQGTQVTVSS | low polyreactivity
QVQLVESGGRLVQAGGSLRLSCAASGFTFNRYAMGGYRHAPGKERELVARITRGGSTKYADSVKGRFTISRDNAKNTVYLQMNSLKPEDTAVYYCAADYGGFLGYDYWGQGTQVTVSS | high polyreactivity
QVQLVESGGGLVQAGGSLRLSCAASGLTFYYYDMGWYRQAPGKERELVAAITSGGSSTYYADSVKGRITISRDNAKNTVYLQMNSLKPEDTAVYYCNADSPYIPYIYDYWGQGTQVTVSS | low polyreactivity
QVQLVESGGGLVQAGGSLRLSCAASGIIFYYYTIGWYRPAPGKERELVASITWSGGGSTYYADSVKGRFTISRDNAKNTVYLQMNCLNPEDTAVYYCNADEYYSYYYWGQGTQVTVSS | low polyreactivity
QVQLVESGGGLVQAGGSLRLSCAASGRIFSAYAMGWYRQAPGKERELVAAISRSGGRTYYADSVKGRFTISRDNAKNTVYLQMNSLKPEDTAVYYCAAARFAIVRGDYWGQGTQVTVSS | high polyreactivity
QVQLVDSGGGLVQAGGSLRLTCAASGSIFNHKAMGGYRQAHGKERELVAAIRFSTGTTYYADSVKGRFTISRDYAMNTVYVQMNSLKPEDTAVYYWNAQGYFTDYWLSSYFRDFDYWGQGTHVTVSS | low polyreactivity
QVQLVEAGGGLVQAGGSLRLSCAAAGRTFSANALGWSRQAPGKERELVATITLRGGSTNYADSVKGPFTISRDHAKNTVYLQINSLKPEDTAVYDCNAYVNANVRRAYWGFDYWGQGTHVTVSS | high polyreactivity
QVQLVESGGGLVQAGGSLRLSCAASGRIFATNAMGWYRQAPGKERELVATITRSAGRTYYADSVKGRFTISRDNAKNTVYLQMNSLKPEDTAVYYCAASYWDTDPGYREYDYWGQGTQVTVSS | low polyreactivity
QVQLVESGGGLVQAGGSLRLSCAASGSIFWYYAMGWYRQAPGKERELVASITSGGSTNYADSVKGRFTISRDNAKNTVYLQMISLKPEDTAVYYCNTDDDSSSTGYYSWGQGTQVTVSS | low polyreactivity
QVQLVESGGGLVQAGGSLRLSCAASGRTFQTNAMGWYRQAPGKERELVAAISWSGGRTYYADSVKGRFTISRDNAKNTVYLQMNSLKPEDTAVYYCAARQWYRYKVRFDYCGQGTQVTVSS | high polyreactivity
QVQLVESGGGLVQAGGSLRLSCAASGRTFSVYAMGWYRQAPGKEREFVATISYSGVRTSYADSVKGRFTISRDNAKNTGYLQMNSLKPEDTAVYYCNARTYYPVYYRDGGYWGQGTQVTVSS | high polyreactivity
PVQLVESGGGLVQAGGSLRLSCAASGFIFDSYPMGWYRQAPGKERELVAAISYSAGSTSYADSVKGRFTISRDNAKNTVYLQMKSLKPEDTAVYYCNARYYPLYSNSYDSWGQGTQVTVSS | low polyreactivity
QVQLVESGGGLVQAGGSLRLSCAASGRIFALYAMGWYRQAPGKERELVAAITWRGGRTRYADSVKGRFTISRDNAKNTVYLQMNSLKPEDTAVYYCAKEYVKYQWDYGYWGQGTQVTVSS | high polyreactivity
QVQLVESGGGLVQAGGSLRLSCAASGRTFYYYAMGWYIQAPGKEREFVASISYSGARTYYADSVKGRFTISRDNAKNTVYLQMNSLKPEDTAVYYCNRYASNYGYIDYWGQGTQVTVSS | high polyreactivity
QVQLVESGGGLFQAGGSLRLSCAASGSTFGFNAMGWYRQAPGKEREFVAAINTSGGNTYYADSVKGRFTISRDNAKNTVYLQMNSLKPEDTAVYYCNAREGHLYGYPYGYWGQGTQVTVSS | low polyreactivity
